From patent US8329186B2, “Treatment of inflammation using BST2 inhibitor” (Isu Abxis Co., Ltd, priority 2004, dated 2012)
“Also recorded” adds a separate entry of the source.

Columns and labels:
[1] = system: CLP sepsis; assay: Cecal ligation and puncture (CLP) sepsis model: survival; type: in vivo, rat
Source text: A rat model of sepsis was induced through cecal ligation and puncture (CLP) as described previously (Wichterman K A, Baue A E, Chaudry I H: Sepsis and septic shock-a review of laboratory models and a proposal. J Surg Res 29:189-201, 1980). An incision was made along the midline of the abdomen on an anesthetized animal. The cecum was exteriorized, ligated and punctured with a stainless steel needle. An appropriate amount of fecal matter was then extruded. The gauge of the needle, number of punctures and amount of fecal matter extruded are all factors in determining the severity of sepsis and mortality. […] The incision was sutured and appropriate post-operative care was administered. Sham-operated animals were subjected to similar laparotomy and intestinal manipulation, however, the cecum was neither ligated nor punctured. Immediately or 6 hours after the CLP procedure, animals were given intravenous injection of vehicle or a Bst2 decoy.
Mortality of animals was monitored for up to 14 days after the procedure. […] 3, 10, and 30 mg/kg doses were administered immediately following the CLP procedure and daily survival monitored over the course of 14 days.

[2] = system: interleukin-2 (IL-2); assay: IL-2 expression in activated Jurkat cells (real-time RT-PCR); type: cell-based, human; details: 3-fold increased by Jurkat cell activation
Method: Intracellular expression levels of specific genes were analyzed by real-time quantitative RT-PCR using ABI Prism 7900HT (Applied Biosystems, Foster City, Calif.) and a SYBR-Green assay kit. Primers and probes used were designed using Primer Express software (Applied Biosystems).
10 ng of single-stranded cDNA was placed in a reaction tube and subjected to multiplex TaqMan PCR (50 μl) using the TaqMan Universal PCR Master Mix. The relative amount of target cDNA was calculated using the comparative cycle threshold (CT) method. PCR products were analyzed by agarose gel electrophoresis.
The relative levels of a specific gene A were expressed as a change compared to a control sample (untransfected cells). […] The above experiments were carried out to quantify the expression of the Bst2 gene and interleukin-2.
When Jurkat cells (5×10^5 cells/ml) were incubated with anti-CD3 monoclonal antibody (OKT3: 10 μg/ml, BD Pharmingen) at 4° C. for 20 min and then with anti-mouse immunoglobulin polyclonal antibody (25 μg/ml, Zymed) 37° C. for 1 hr, cell aggregation occurred, and the cells were activated and induced to produce interleukin-2 (IL-2) (FIGS. 10 and 11). […] IL-2 mRNA levels upon T cell activation were measured by real-time RT-PCR (Example 3). […]

[3] = system: U937 cells; assay: Homotypic aggregation of U937 cells induced by PMA and LPS; type: cell-based, human; details: decoy medium from CHO-S cells, in comparison with control medium
Method: Expression levels of Bst2 protein were examined during aggregation of human U937 monocytic cells. […] To determine the degree of cell aggregation, the size of formed cell aggregates was measured as pixel intensity, using Adobe's Photoshop software, version 7.0. The standard deviation values shown in drawings were calculated from mean values of six randomly selected aggregates. Thereafter, all used cells were recovered, and total RNA was isolated and subjected to RT-PCR using a set of primers of SEQ ID NOS:3 and 4 to assess Bst2 expression levels.
1×10^6 U937 cells, which had been cultured under the aforementioned conditions, were seeded onto a 96-well cell culture plate (NUNC) and treated with PMA (2 ng/ml, Calbiochem) and LPS (10 μg/ml, Calbiochem) for 24 hrs. The cells were then observed for the degree of homotypic cell aggregation under a phase-contrast inverted microscope (Olympus 1X71, state, USA).
U937 cells were pretreated with PMA and LPS to induce cell aggregation, and were treated with serial dilutions of medium (decoy medium) containing a Bst2 decoy transiently expressed in CHO-S cells.

[4] = system: HUVECs and U937 cells; assay: Heterotypic aggregation/adhesion between IFN-γ-treated HUVECs and U937 cells; type: cell-based, human
Method: HUVECs (1−5×10^4 cells/ml) were seeded onto a 12-well cell culture plate. After one day, the medium was exchanged with a low-serum medium containing 0.5% FBS, and the cells were pretreated with interferon-gamma (IFN-γ; Calbiochem) in a final concentration 10 ng/ml for 24 hrs. Then, the pretreated HUVECs were co-cultured with U937 cells (2×10^6 cells/ml, 500 μl) at 37° C. for 4 hrs. The co-culture was washed with phosphate buffer three or four times, and the remaining cells were fixed with 4% paraformaldehyde and microscopically observed.
HUVECs were transfected with an expression vector for Bst2, treated with or without IFN-γ and then transfected with Bst2 siRNA. These cells were assessed for U937 cell adhesion.
HUVECs were cultured in 12-well plates with or without transfection of Bst2 siRNA or control siRNA for 6 hr, then treated with or without IFNγ for 24 hr. In some experiments, cells were treated with crude media containing Bst2 decoy or mouse anti-human ICAM1 antibodies. After a wash with PBS (phosphate buffered saline), U937 cells were resuspended in serum free medium at 2×10^6 cells/ml. Assays were initiated by the addition of 200 ul U937 cells to HUVEC for a final volume of 1 ml. After 4 hr at 37° C., unbound U937 cells were removed by washing plates three times with PBS. Bound cells were fixed by the addition of 4% paraformaldehyde in PBS, and the bound cells were counted under microscopy in different fields. All statistical analyses were performed in Excel and statistical significance were evaluated with Student's t test. In some experiments, RNA samples were obtained from HUVECs after treatment with IFNγ and/or siRNAs, and real-time polymerase chain reaction (RT-PCR) analyses were performed.

[5] = system: Jurkat cells; assay: Homotypic aggregation of Jurkat T cells activated with anti-CD3; type: cell-based, human; details: pretreatment 30 min before activation with anti-CD3
Method: When Jurkat cells (5×10^5 cells/ml) were incubated with anti-CD3 monoclonal antibody (OKT3: 10 μg/ml, BD Pharmingen) at 4° C. for 20 min and then with anti-mouse immunoglobulin polyclonal antibody (25 μg/ml, Zymed) 37° C. for 1 hr, cell aggregation occurred, and the cells were activated and induced to produce interleukin-2 (IL-2) (FIGS. 10 and 11). According to the same method, when green fluorescent protein (GFP) overexpression was induced, there was no effect. In contrast, when Jurkat cells were transfected with a Bst2-overexpressing vector and were induced to activate, homotypic cell aggregation increased (FIG. 10, panel A). IL-2 mRNA levels upon T cell activation were measured by real-time RT-PCR (Example 3). IL-2 mRNA expression was elevated by about two times under Bst2 overexpression in comparison with GFP overexpression (FIG. 10, panel B).
Jurkat cells were pretreated with a Bst2 decoy 30 min before activation, were activated using anti-CD3 monoclonal antibody, and were evaluated for inhibition of cell aggregation. The cells were treated with a relative amount of serial dilutions of an animal cell culture fluid containing a Bst2 decoy. The size of aggregates was represented as a ratio to the size of aggregates of a non-treatment group.

B1: Bst2 decoy: soluble Bst2 protein fragment having the amino acid sequence of SEQ ID NO:1; extracellular region of human Bst2, six-histidine tag (protein)
chain: NSEACRDGLRAVMECRNVTHLLQQELTEAQKGFQDVEAQAATCNHTVMALMASLDAEKAQGQKKVEELEGEITTLNHKLQDASAEVERLRRENQVLSVRIADKKYYPSSQDHHHHHH
For B1, the “14 day survival rate” value ([1]; 3 mg/kg intravenous immediately following CLP) was 37.5%, the “14 day survival rate” value ([1]; 10 mg/kg intravenous immediately following CLP) was 80% and the “14 day survival rate” value ([1]; 30 mg/kg intravenous immediately following CLP) was 75%. For the same molecule, the 14-day survival rate ([1]; administration 6 hours post-CLP) was 70%, the “expression of IL-2” value [2] was “decreased again to the basal level” and the “decrease of U937 cell aggregation induced by PMA and LPS” value [3] was 50%. The “binding of U937 cells to IFNγ-treated HUVECs” value ([4]; Bst2 decoy-containing medium, IFN-γ 10 ng/ml 24 hrs, co-culture 4 hrs) was “decreased binding”, the “dose dependence of effect in heterotypic cell aggregation/adhesion assay” value ([4]; IFNγ-treated HUVECs and U937 cells) was “dependent on concentrations; also recorded: dose-dependent response” and the “aggregation of Jurkat cells” value [5] was “significant decrease”.
